Experimental data reported in article PMC10397247.

Legend:
O9-bN = target: T1, O9-bN; assay: two-hybrid library CCNG1;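 note: natural log of median RNA to DNA barcode read ratio; higher means stronger binding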
T1 chain: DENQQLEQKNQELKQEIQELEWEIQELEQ

O4-bN = target: T2, O4-bN; assay: two-hybrid library CCNG1;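 note: natural log of median RNA to DNA barcode read ratio; higher means stronger binding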
T2 chain: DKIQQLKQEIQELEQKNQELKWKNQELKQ

O2-bN = target: T3, O2-bN; assay: two-hybrid library CCNG1;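 note: natural log of median RNA to DNA barcode read ratio; higher means stronger binding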
T3 chain: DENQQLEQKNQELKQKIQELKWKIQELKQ

O7-bN = target: T4, O7-bN; assay: two-hybrid library CCNG1;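 note: natural log of median RNA to DNA barcode read ratio; higher means stronger binding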
T4 chain: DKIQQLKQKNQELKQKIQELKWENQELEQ

O13-bN = target: T5, O13-bN; assay: two-hybrid library CCNG1;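 note: natural log of median RNA to DNA barcode read ratio; higher means stronger binding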
T5 chain: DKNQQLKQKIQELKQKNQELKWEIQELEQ

O16-bN = target: T6, O16-bN; assay: two-hybrid library CCNG1;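 note: natural log of median RNA to DNA barcode read ratio; higher means stronger binding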
T6 chain: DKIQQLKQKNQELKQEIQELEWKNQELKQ

O5-bN = target: T7, O5-bN; assay: two-hybrid library CCNG1
T7 chain: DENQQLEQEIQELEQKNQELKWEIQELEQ

O6-bN = target: T8, O6-bN; assay: two-hybrid library CCNG1
T8 chain: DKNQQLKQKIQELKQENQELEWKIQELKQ

O15-bN = target: T9, O15-bN; assay: two-hybrid library CCNG1
T9 chain: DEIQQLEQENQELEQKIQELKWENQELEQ

O3-bN = target: T10, O3-bN; assay: two-hybrid library CCNG1
T10 chain: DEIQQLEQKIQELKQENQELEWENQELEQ

O12-bN = target: T11, O12-bN; assay: two-hybrid library CCNG1
T11 chain: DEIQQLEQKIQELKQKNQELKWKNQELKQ

O14-bN = target: T12, O14-bN; assay: two-hybrid library CCNG1
T12 chain: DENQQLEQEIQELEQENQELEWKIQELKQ

O8-bN = target: T13, O8-bN; assay: two-hybrid library CCNG1
T13 chain: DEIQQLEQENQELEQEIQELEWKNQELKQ

P3bHq = target: T14, P3bHq; assay: two-hybrid library CCNG1
T14 chain: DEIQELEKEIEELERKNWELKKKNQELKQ

P6bHq = target: T15, P6bHq; assay: two-hybrid library CCNG1
T15 chain: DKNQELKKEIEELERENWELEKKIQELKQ

P4bHq = target: T16, P4bHq; assay: two-hybrid library CCNG1
T16 chain: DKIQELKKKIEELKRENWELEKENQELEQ

P7bHq = target: T17, P7bHq; assay: two-hybrid library CCNG1
T17 chain: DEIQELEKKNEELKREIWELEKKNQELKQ

P8bHq = target: T18, P8bHq; assay: two-hybrid library CCNG1
T18 chain: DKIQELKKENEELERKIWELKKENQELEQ

P2bHq = target: T19, P2bHq; assay: two-hybrid library CCNG1
T19 chain: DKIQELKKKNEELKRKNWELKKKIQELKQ

P1bHq = target: T20, P1bHq; assay: two-hybrid library CCNG1
T20 chain: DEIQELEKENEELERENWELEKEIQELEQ

P9bHq = target: T21, P9bHq; assay: two-hybrid library CCNG1
T21 chain: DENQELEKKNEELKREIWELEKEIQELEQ

P5bHq = target: T22, P5bHq; assay: two-hybrid library CCNG1
T22 chain: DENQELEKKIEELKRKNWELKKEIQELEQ

4H2745-bH = target: T23, 4H2745-bH; assay: two-hybrid library CCNG1
T23 chain: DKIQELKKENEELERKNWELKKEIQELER

4H470-bH = target: T24, 4H470-bH; assay: two-hybrid library CCNG1
T24 chain: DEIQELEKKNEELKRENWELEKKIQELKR

4H344-bH = target: T25, 4H344-bH; assay: two-hybrid library CCNG1
T25 chain: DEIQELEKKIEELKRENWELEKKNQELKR

4H3189-bA = target: T26, 4H3189-bA; assay: two-hybrid library CCNG1
T26 chain: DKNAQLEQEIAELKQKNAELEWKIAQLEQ

4H3907-bH = target: T27, 4H3907-bH; assay: two-hybrid library CCNG1
T27 chain: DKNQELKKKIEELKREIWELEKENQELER

4H3961-bH = target: T28, 4H3961-bH; assay: two-hybrid library CCNG1
T28 chain: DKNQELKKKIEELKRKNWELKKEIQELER

4H363-bH = target: T29, 4H363-bH; assay: two-hybrid library CCNG1
T29 chain: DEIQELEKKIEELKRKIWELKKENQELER

4H2619-bH = target: T30, 4H2619-bH; assay: two-hybrid library CCNG1
T30 chain: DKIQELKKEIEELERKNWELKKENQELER

4H2568-bH = target: T31, 4H2568-bH; assay: two-hybrid library CCNG1
T31 chain: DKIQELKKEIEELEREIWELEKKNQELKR

4H3277-bA = target: T32, 4H3277-bA; assay: two-hybrid library CCNG1
T32 chain: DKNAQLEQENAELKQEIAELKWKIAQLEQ

4H319-bA = target: T33, 4H319-bA; assay: two-hybrid library CCNG1
T33 chain: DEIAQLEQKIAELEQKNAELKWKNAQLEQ

4H2839-bA = target: T34, 4H2839-bA; assay: two-hybrid library CCNG1
T34 chain: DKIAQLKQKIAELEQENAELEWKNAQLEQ

4H2473-bA = target: T35, 4H2473-bA; assay: two-hybrid library CCNG1
T35 chain: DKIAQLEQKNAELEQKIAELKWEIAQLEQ

4H2588-bA = target: T36, 4H2588-bA; assay: two-hybrid library CCNG1
T36 chain: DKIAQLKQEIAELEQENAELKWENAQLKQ

4H2915-bA = target: T37, 4H2915-bA; assay: two-hybrid library CCNG1
T37 chain: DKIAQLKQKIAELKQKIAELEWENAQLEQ

4H741-bA = target: T38, 4H741-bA; assay: two-hybrid library CCNG1
T38 chain: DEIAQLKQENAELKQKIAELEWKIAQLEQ

4H2717-bA = target: T39, 4H2717-bA; assay: two-hybrid library CCNG1
T39 chain: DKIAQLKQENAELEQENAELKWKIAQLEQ

P11A-bS = target: T40, P11A-bS; assay: two-hybrid library CCNG1
T40 chain: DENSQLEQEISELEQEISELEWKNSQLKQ

4H348-bA = target: T41, 4H348-bA; assay: two-hybrid library CCNG1
T41 chain: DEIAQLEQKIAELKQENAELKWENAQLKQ

4H2692-bA = target: T42, 4H2692-bA; assay: two-hybrid library CCNG1
T42 chain: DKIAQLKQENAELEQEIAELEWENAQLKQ

4H477-bA = target: T43, 4H477-bA; assay: two-hybrid library CCNG1
T43 chain: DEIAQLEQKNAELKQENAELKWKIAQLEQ

4H492-bA = target: T44, 4H492-bA; assay: two-hybrid library CCNG1
T44 chain: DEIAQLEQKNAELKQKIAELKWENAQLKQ

4H3057-bA = target: T45, 4H3057-bA; assay: two-hybrid library CCNG1
T45 chain: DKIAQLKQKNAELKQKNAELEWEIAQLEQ

4H2503-bA = target: T46, 4H2503-bA; assay: two-hybrid library CCNG1
T46 chain: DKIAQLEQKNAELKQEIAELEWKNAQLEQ

4H40-bA = target: T47, 4H40-bA; assay: two-hybrid library CCNG1
T47 chain: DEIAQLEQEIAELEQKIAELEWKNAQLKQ

O11-bN = target: T48, O11-bN; assay: two-hybrid library CCNG1
T48 chain: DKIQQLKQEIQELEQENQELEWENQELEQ

P4mS = target: T49, P4mS; assay: two-hybrid library CC1; details: mean of both orientations
T49 chain: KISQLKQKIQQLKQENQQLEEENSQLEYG

P5SC1 = target: T50, P5SC1; assay: two-hybrid library CC1; details: mean of both orientations
T50 chain: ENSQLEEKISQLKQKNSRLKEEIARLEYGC

P4 = target: T51, P4; assay: two-hybrid library CC1; details: mean of both orientations
T51 chain: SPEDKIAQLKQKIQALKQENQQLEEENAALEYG

P6 = target: T52, P6; assay: two-hybrid library CC1; details: mean of both orientations
T52 chain: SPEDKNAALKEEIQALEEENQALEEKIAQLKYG

P8 = target: T53, P8; assay: two-hybrid library CC1; details: mean of both orientations
T53 chain: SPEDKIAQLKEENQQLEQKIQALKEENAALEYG

P6SC2 = target: T54, P6SC2; assay: two-hybrid library CC1; details: mean of both orientations
T54 chain: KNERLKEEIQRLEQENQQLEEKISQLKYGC

P6mS = target: T55, P6mS; assay: two-hybrid library CC1; details: mean of both orientations
T55 chain: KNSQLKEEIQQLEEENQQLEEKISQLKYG

P8mS = target: T56, P8mS; assay: two-hybrid library CC1; details: mean of both orientations
T56 chain: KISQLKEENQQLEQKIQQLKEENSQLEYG

P5SC2 = target: T57, P5SC2; assay: two-hybrid library CC1; details: mean of both orientations
T57 chain: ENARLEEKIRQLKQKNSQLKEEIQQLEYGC

P5 = target: T58, P5; assay: two-hybrid library CC1; details: mean of both orientations
T58 chain: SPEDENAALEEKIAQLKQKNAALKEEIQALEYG

P3 = target: T59, P3; assay: two-hybrid library CC1
T59 chain: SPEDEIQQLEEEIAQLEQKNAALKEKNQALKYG

P3mS = target: T60, P3mS; assay: two-hybrid library CC1; details: mean of both orientations
T60 chain: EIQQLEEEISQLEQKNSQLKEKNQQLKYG

P7 = target: T61, P7; assay: two-hybrid library CC1; details: mean of both orientations
T61 chain: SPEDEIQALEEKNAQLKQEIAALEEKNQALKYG

P6SC1 = target: T62, P6SC1; assay: two-hybrid library CC1; details: mean of both orientations
T62 chain: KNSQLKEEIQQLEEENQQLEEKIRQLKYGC

P7mS = target: T63, P7mS; assay: two-hybrid library CC1; details: mean of both orientations
T63 chain: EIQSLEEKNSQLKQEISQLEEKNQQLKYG

P9 = target: T64, P9; assay: two-hybrid library CC1; details: mean of both orientations
T64 chain: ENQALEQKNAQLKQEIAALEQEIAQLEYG

P5mS = target: T65, P5mS; assay: two-hybrid library CC1; details: mean of both orientations
T65 chain: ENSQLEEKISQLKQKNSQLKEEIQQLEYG

DEIQQLEQKIQELKQKNQELKWKNQELKQ [O12-bN]
interaction score (O9-bN): -0.349
interaction score (O4-bN): -0.33
interaction score (O2-bN): -0.846
interaction score (O7-bN): -0.201
interaction score (O13-bN): -0.316
interaction score (O16-bN): -0.487
interaction score (O5-bN): -2.82
interaction score (O6-bN): 0.155
interaction score (O15-bN): -0.511
interaction score (O3-bN): 0.565
interaction score (O12-bN): -0.0253
interaction score (O14-bN): -0.704
interaction score (O8-bN): 0.0745

DEIQELEKENEELERENWELEKEIQELEQ [P1bHq]
interaction score (P3bHq): -1.03
interaction score (P6bHq): -0.273
interaction score (P4bHq): -0.52
interaction score (P7bHq): -0.288
interaction score (P8bHq): -0.272
interaction score (P2bHq): 1.87
interaction score (P1bHq): -0.606
interaction score (P9bHq): -1.78
interaction score (P5bHq): -0.887

DKIQELKKEIEELEREIWELEKKNQELKR [4H2568-bH]
interaction score (4H2745-bH): -0.189
interaction score (4H470-bH): -1.26
interaction score (4H344-bH): 0.802
interaction score (4H3189-bA): 0.615
interaction score (4H3907-bH): 1.31
interaction score (4H3961-bH): 2.42
interaction score (4H363-bH): 1.72
interaction score (4H2619-bH): 1.65
interaction score (4H2568-bH): 2.17

DKIAQLEQKNAELEQKIAELKWEIAQLEQ [4H2473-bA]
interaction score (4H3277-bA): -1.53
interaction score (4H319-bA): -0.981
interaction score (4H2839-bA): -0.648
interaction score (4H2473-bA): 0.144
interaction score (4H2588-bA): -1.02
interaction score (4H2915-bA): 0.904
interaction score (4H741-bA): -1.42
interaction score (4H2717-bA): -0.42
interaction score (P11A-bS): -0.676
interaction score (4H348-bA): -1.44
interaction score (4H2692-bA): 0.426
interaction score (4H477-bA): -0.946
interaction score (4H492-bA): -1.09
interaction score (4H3057-bA): 0.511
interaction score (4H2503-bA): 0.82
interaction score (4H40-bA): -0.325

DKIQQLKQEIQELEQENQELEWENQELEQ [O11-bN]
interaction score (O11-bN): -0.191
interaction score (O9-bN): -0.813
interaction score (O4-bN): 0.401
interaction score (O2-bN): -0.23
interaction score (O7-bN): -1.3
interaction score (O13-bN): -0.808
interaction score (O16-bN): -1.91
interaction score (O5-bN): -1.06
interaction score (O6-bN): -0.927
interaction score (O15-bN): -0.577
interaction score (O3-bN): -0.437
interaction score (O12-bN): 0.971
interaction score (O14-bN): -0.639
interaction score (O8-bN): -1.26

SPEDEIQQLEEEIAQLEQKNAALKEKNQALKYG [P3]
interaction score (P4mS): 0.336
interaction score (P5SC1): -2.58
interaction score (P4): 0.154
interaction score (P6): -2.59
interaction score (P8): -2.6
interaction score (P6SC2): -2.04
interaction score (P6mS): -2.79
interaction score (P8mS): -2.7
interaction score (P5SC2): -2.4
interaction score (P5): -2.66
interaction score (P3): -2.65
interaction score (P3mS): -2.89
interaction score (P7): -2.61
interaction score (P6SC1): -2.57
interaction score (P7mS): -2.58
interaction score (P9): -2.09
interaction score (P5mS): -2.66
